Experimental data: US20210079109A1 (Regeneron, published 2021)

T1: human CD63 (human, UniProt P08962 2-238)
T1 construct: stably transfected in NIH3T3/hCD63; The cell line is named under assay; also called hCD63
T1 sequence: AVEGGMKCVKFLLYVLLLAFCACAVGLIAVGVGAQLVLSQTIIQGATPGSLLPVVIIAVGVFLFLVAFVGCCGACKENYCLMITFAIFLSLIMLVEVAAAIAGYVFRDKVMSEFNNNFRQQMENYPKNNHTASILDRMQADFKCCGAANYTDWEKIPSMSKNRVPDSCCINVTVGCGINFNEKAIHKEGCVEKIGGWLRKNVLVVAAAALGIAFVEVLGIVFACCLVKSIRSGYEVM


Columns and labels:
human CD63 [1] = target: T1, human CD63; assay: ECL, U87MG cells
Description: (§1) LNCAP cells were determined to have a lower human CD63 copy number than U87MG cells. Non-transfected NIH3T3 cells, which have no detectable expression of human CD63 by fluorescence activated cell sorting (FACS), were included as a negative control.
(§2) Briefly, cell lines were rinsed once in PBS buffer without Ca²⁺/Mg²⁺ and incubated for 10 minutes at 37° C. with Enzyme Free Cell Dissociation Solution (Millipore, Cat #S-004-C) to detach the cells. Cells were then washed once with PBS with Ca²⁺/Mg²⁺ and counted with a Cellometer™ Auto T4 cell counter (Nexcelom Bioscience, LLC). Approximately 2.0×10⁴ NIH3T3/hCD63, LNCAP, U87MG or NIH3T3 cells were seeded separately onto 96-well carbon electrode plates […]) and were then incubated for one hour at 37° C. Nonspecific binding sites were blocked with 2% BSA (w/v) in PBS with Ca²⁺/Mg²⁺ for one hour at room temperature (RT). Solutions containing anti-CD63 antibodies or isotype control antibodies at a range of concentrations (1.7 pM to 100 nM) in 0.5% BSA (w/v) in PBS with Ca²⁺/Mg²⁺, as well as control buffer alone, were then added in duplicate to the plate-bound NIH3T3/hCD63, LNCAP, U87MG or NIH3T3 cells and incubated for one hour at RT. Plates were subsequently washed to remove unbound antibodies using an AquaMax2000 plate washer with a cell washing head (MDS Analytical Technologies). […] Plates were washed and then incubated with Read Buffer (MSD, Cat #R92TD-2) according to the manufacturer's instructions. Luminescent signals were measured using a SECTOR Imager (MSD).

human CD63 [2] = target: T1, human CD63; assay: ECL, LNCAP cells
Description: as §1, §2

human CD63 [3] = target: T1, human CD63; assay: ECL, NIH3T3/hCD63 cells
Description: as §1, §2

[4] = target: T2, recombinant human CD63 extracellular loop 2 expressed with a C-terminal human Fc tag (human); assay: SPR Biacore, mAb captured, 37C
T2 construct: also called hCD63 EC loop 2-hFc; human CD63 EC loop 2-Fc
Description: (§3) Equilibrium dissociation constants (KD) for different CD63 (EC2) loop reagents binding to purified anti-CD63 monoclonal antibodies were determined using a real-time surface plasmon resonance based Biacore T200 biosensor or Biacore 2000 biosensor. All binding studies were performed in 10 mM HEPES, 150 mM NaCl, 3 mM EDTA, and 0.05% v/v Surfactant Tween-20, pH 7.4 (HBS-ET) running buffer at 25° C. and 37° C. The Biacore CMS sensor chip surface was first derivatized by amine coupling with either a rabbit anti-mouse Fc specific polyclonal antibody (GE Healthcare, Cat #BR100838) or an anti-human Fab kit (GE Healthcare, Cat #28958325) to capture anti-CD63 monoclonal antibodies. […] The association rate (Kₐ) and dissociation rate (kd) were determined by fitting the real-time binding sensorgrams to a 1:1 binding model with mass transport limitation using Scrubber 2.0c curve-fitting software. Binding dissociation equilibrium constant (KD) and dissociative half-life (t½) were calculated from the kinetic rates as: […]
(§4) Binding kinetics parameters for human CD63 EC loop 2 protein binding to different anti-CD63 monoclonal antibodies of the invention at 25° C. and 37° C. are shown in Tables 6 through 9.

[5] = target: T3, recombinant human CD63 extracellular loop 2 expressed with a C-terminal Myc-Myc-hexahistidine (human); assay: SPR Biacore, mAb captured, 37C
T3 construct: also called hCD63 EC loop 2-MMH; human CD63 EC loop 2-MMH
Description: as §3, §4

[6] = target: T2, recombinant human CD63 extracellular …; assay: SPR Biacore, mAb captured, 25C
Description: as §3, §4

[7] = target: T3, recombinant human CD63 extracellular …; assay: SPR Biacore, mAb captured, 25C
Description: as §3, §4

T3 sequence (chain, as listed by the source limits assumed): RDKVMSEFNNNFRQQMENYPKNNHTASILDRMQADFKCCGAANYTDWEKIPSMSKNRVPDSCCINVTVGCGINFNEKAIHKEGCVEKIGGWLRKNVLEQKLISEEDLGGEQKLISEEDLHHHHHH
T2 sequence (chain, as listed by the source limits assumed): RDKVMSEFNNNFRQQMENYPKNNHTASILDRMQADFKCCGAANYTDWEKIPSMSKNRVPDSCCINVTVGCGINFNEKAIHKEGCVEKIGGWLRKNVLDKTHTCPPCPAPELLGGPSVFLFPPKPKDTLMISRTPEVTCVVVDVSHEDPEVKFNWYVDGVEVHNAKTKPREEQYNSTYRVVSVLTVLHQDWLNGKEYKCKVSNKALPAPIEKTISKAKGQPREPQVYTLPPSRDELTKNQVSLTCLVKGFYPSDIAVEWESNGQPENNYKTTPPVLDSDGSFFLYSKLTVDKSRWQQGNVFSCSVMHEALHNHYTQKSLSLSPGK

EC50 (human CD63 [1]) [nM] | binding ratio at 3.7 nM vs NIH3T3 (human CD63 [1]) [fold] | EC50 (human CD63 [2]) [nM] | binding ratio at 3.7 nM vs NIH3T3 (human CD63 [2]) [fold] | EC50 (human CD63 [3]) [nM] | binding ratio at 3.7 nM vs NIH3T3 (human CD63 [3]) [fold] | 100 nM Ag Bound (RU) [4] [RU] | Kd [4] [nM] | koff [4] [s⁻¹] | kon [4] [M⁻¹ s⁻¹] | t1/2 [4] [min] | 100 nM Ag Bound (RU) [5] [RU] | Kd [5] [nM] | koff [5] [s⁻¹] | kon [5] [M⁻¹ s⁻¹] | t1/2 [5] [min] | 100 nM Ag Bound (RU) [6] [RU] | Kd [6] [nM] | koff [6] [s⁻¹] | kon [6] [M⁻¹ s⁻¹] | Binder | further results
0.3 | 284 | 0.25 | 31 | 0.52 | 434 | 158 | 0.863 | 0.000887 | 1.03e+06 | 13 | 60 | 5.02 | 0.00327 | 651000 | 4 | 131 | 0.238 | 0.000173 | 728000 | H1M12388N (antibody, V domains shown) VH: QVQLEESGGGVVKAGGSLRLSCAASGFTFSDYYINWIRQAPGKGLEWVSYINNGGYTIYYADSVKGRFTMSRDNAKNSVYLQMNGLRAEDTAFYYCVRDPRSYYGFDYWGQGTLVTVSS VL: DIQMTQSPSSLSASVGDRVTITCRASQSISRFLHWYQQKPGKAPKLLIYGASSLQSGVPSRFSGSGSGTDFTLTISTLQPEDFATYYCQQSYSTPPITFGQGTRLEIK | t1/2 [6]: 67 min; 100 nM Ag Bound (RU) [7]: 59 RU; Kd [7]: 0.72 nM; koff [7]: 0.000587 s⁻¹; kon [7]: 815000 M⁻¹ s⁻¹; t1/2 [7]: 20 min
0.29 | 172 | 0.15 | 18 | 0.39 | 228 | 196 | 0.596 | 0.000657 | 1.1e+06 | 18 | 77 | 5.21 | 0.00354 | 679000 | 3 | 164 | 0.129 | 0.00011 | 854000 | H2M12387N (antibody, V domains shown, also called H2aM12387N) VH: QVQLEESGGGVVKAGGSLRLSCAASGFTFSDYYMNWIRQAPGKGLEWVSYINNGGYTIYYADSVKGRFTMSRDNAKNSVYLQMNGLRAEDTAFYYCVRDPRSYYGFDYWGQGTLVIVSS VL: DIQMTQSPSSLSASVGDRVTITCRASQSISRFLHWYQQKPGKAPKLLIYGASSLQSGVPSRFSGSGSGTDFTLTISSLQPEDFATYYCQQSYSTPPITFGQGTRLEIK | t1/2 [6]: 105 min; 100 nM Ag Bound (RU) [7]: 74 RU; Kd [7]: 0.994 nM; koff [7]: 0.00054 s⁻¹; kon [7]: 543000 M⁻¹ s⁻¹; t1/2 [7]: 21 min
0.31 | 129 | 0.29 | 16 | 0.52 | 220 | 170 | 0.685 | 0.000631 | 921000 | 18 | 65 | 3.61 | 0.00235 | 650000 | 5 | 160 | 0.173 | 0.000113 | 654000 | H1M12386N (antibody, V domains shown) VH: QVQLEESGGGVVKAGGSLRLSCVASGFTFSDYYINWIRQAPGKGLEWVSYINNGGYTIYYADSVKGRFTMSRDNAKNSVYLEMNGLRAEDTAFYYCVRDPRSYYGFDYWGQGTLVTVSS VL: DIQMTQSPSSLSASVGDRVTITCRASQSISSYLNWNQQKPGKAPKLLIYVASSLQSGVPSRFSGSGSGTDFTLTISGLQPEDFAPYYCQQSYITPPITFGQGTRLDIK | t1/2 [6]: 102 min; 100 nM Ag Bound (RU) [7]: 65 RU; Kd [7]: 0.676 nM; koff [7]: 0.000365 s⁻¹; kon [7]: 540000 M⁻¹ s⁻¹; t1/2 [7]: 32 min
0.56 | 174 | 0.57 | 16 | 0.63 | 283 | 118 | 0.977 | 0.000669 | 685000 | 17 | 32 | 19.5 | 0.0072 | 369000 | 2 | 125 | 0.84 | 0.000399 | 477000 | H1M12362N (antibody, V domains shown) VH: QVQLVESGGGLVKPGGSLRLSCAASGFIFSDYYINWIRQAPGKGLEWVSYTSSSGSTTYYEDSVKGRFTMSRDNARNLVYLQMNSLRAEDTAAYYCVRDLRYNDGLDVWGQGTTVTVSS VL: DILLTQSPSSLSASVGDRVTITCRASQSIRTYLNWYQQKPGRAPKLLVYAASSLQSGVPSRFSGSGSGTDFTLTISSLQPEDFATYFCQQSYDNPPITFGQGTRLAIK | t1/2 [6]: 29 min; 100 nM Ag Bound (RU) [7]: 51 RU; Kd [7]: 12.7 nM; koff [7]: 0.00144 s⁻¹; kon [7]: 113000 M⁻¹ s⁻¹; t1/2 [7]: 8 min
2 | 107 | 1.8 | 7 | 0.83 | 310 | – | – | – | – | – | – | – | – | – | – | – | – | – | – | H1M12366N (antibody, V domains shown, also called H3M12366N) VH: QVQLQESGPGLVKPSETLSLTCTVSGGSISSYYWNWIRQSPEKGLEWIGYIYISGTTNYNPSLKSRVTISVDTFKNQFSLKLNSVTAADTAVYYCARMGLGREAFDIWGQGTMVTVSS VL: not shown | –
2 | 260 | 0.74 | 37 | 0.61 | 593 | 104 | 1.1 | 0.000857 | 779000 | 13 | 34 | 6.98 | 0.00269 | 385000 | 4 | 91 | 1.87 | 0.000228 | 122000 | H2M12452N (antibody, V domains shown, also called H2aM12452N) VH: QVQLQEAGPGLVKPSETLSLTCIVSGGSISGFYWNWIRQPPGKGLEWIGYFLYSGTIDYNPSLKSRVTISVDTSKNQFFLKLSFVTAADTAVYYCVRMGLGANAFDIWGRGTMVTVSS VL: EIVLTQSPGTLSLSPGERATLSCRASQTVSRSFLAWYQQKPGQAPRLLIYGPSSRATGIPDRFSGSGSGTDFTLTISRLEPEDFAVYYCQQYGNSPWTFGQGTKVEIK | t1/2 [6]: 51 min; 100 nM Ag Bound (RU) [7]: 35 RU; Kd [7]: 7.33 nM; koff [7]: 0.000596 s⁻¹; kon [7]: 81300 M⁻¹ s⁻¹; t1/2 [7]: 19 min
1.4 | 50 | 0.75 | 4 | 0.38 | 61 | 67 | 1.54 | 0.000504 | 327000 | 23 | 19 | 76.7 | 0.00277 | 36200 | 4 | 59 | 1.76 | 0.000144 | 81800 | H2M12394N (antibody, V domains shown, also called H2aM12394N) VH: QVQLQESGPGLVKPSETLSLTCTVSGGSISSYYWNWIRQSPGKGLEWIGYTKKRSTNYNPSLRSRVTISEDTSKNQFSLKMSSVTAADTAVYYCAKMGWGSHAFDIWGQGTMVTVSS VL: not shown | t1/2 [6]: 80 min; 100 nM Ag Bound (RU) [7]: 27 RU; Kd [7]: 9.36 nM; koff [7]: 0.000553 s⁻¹; kon [7]: 59100 M⁻¹ s⁻¹; t1/2 [7]: 21 min
